US20250355001A1 (GTINVENT, published 2025)
Read-outs that look alike come from different tables or passages of the source.

Legend:
tau fragment 369-390 [1] = biological target: T1, tau fragment 369-390 (human); assay: direct ELISA
T1 peptide: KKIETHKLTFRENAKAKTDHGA

dGAE (tau 297-391) [2] = biological target: T2, dGAE (tau 297-391) (human, UniProt P10636 614-708); assay: direct ELISA
T2 construct: monomer; also called dGAE95

[3] = biological target: T3, full length human tau protein 2N4R (hT40) (human, UniProt P10636 1-758); assay: SPR, hT40 immobilised, mAb analyte
T3 construct: recombinant; also called T441
T3 sequence (P10636 other isoform, or with tags, fused parts or gaps limits assumed): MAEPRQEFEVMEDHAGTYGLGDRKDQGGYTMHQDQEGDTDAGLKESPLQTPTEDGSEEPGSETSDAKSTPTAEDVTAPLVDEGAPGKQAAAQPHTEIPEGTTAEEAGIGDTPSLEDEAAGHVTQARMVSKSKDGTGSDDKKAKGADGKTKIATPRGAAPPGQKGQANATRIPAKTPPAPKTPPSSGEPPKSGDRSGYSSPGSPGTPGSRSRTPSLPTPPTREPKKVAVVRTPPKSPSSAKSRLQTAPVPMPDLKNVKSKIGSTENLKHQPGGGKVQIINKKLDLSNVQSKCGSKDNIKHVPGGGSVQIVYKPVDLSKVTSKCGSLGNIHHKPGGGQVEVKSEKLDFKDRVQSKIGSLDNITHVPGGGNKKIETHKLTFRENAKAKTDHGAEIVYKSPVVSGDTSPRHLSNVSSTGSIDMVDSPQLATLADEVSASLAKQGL
Description: For anti-tau mAb SPR measurements, htau40 was conjugated to the surface of a CM5 sensor chip using amine coupling as explained previously. Briefly, 2 μg/mL htau40 in 10 mM Sodium acetate buffer (pH 4.0) was passed over the activated chip surface (EDC/NHS) in flow cell 2 for a period for 45 s followed by blocking with 1 M ethanolamine-HCl PH 8.5. Flow cell 1 was set up as reference control and blocked simultaneously. Final immobilisation level of htau40 (Rmax) was approximately 250 RU. […] The mAb was added for a 120 s association period and 600 s dissociation period followed by a regeneration cycle of 30 s injection of glycine buffer pH 1.5 in between each cycle. Binding responses were analysed in Biacore X100 evaluation software and data fitted to a 1:1 binding model to obtain kinetic and affinity characterisation.

aggregated dGAE [4] = biological target: T4, aggregated dGAE (human, UniProt P10636 614-708, limits assumed); assay: capture ELISA, mAb coated at 1 µg/ml, S1G2 scAb detection
T4 construct: dGAE aggregated in vitro with DTT, 700 rpm, 37 C, 24 h; also called dGAE aggregates; dGAE agg

aggregated dGAE [5] = biological target: T4, aggregated dGAE; assay: capture ELISA, mAb coated at 1 µg/ml, aggregates titrated, S1G2 scAb detection
[6] = biological target: T5, human tau (hT40) with P301S and G335D of Line 66 mice (human, UniProt P10636 1-758); assay: Western blot
T5 construct: transgene product in brain homogenate or plasma; also called L66 human tau
T5 sequence (P10636 other isoform, or with tags, fused parts or gaps P301S G335D P301S G335D limits assumed): as the sequence (P10636 other isoform, or with tags, fused parts or gaps limits assumed) above, with P301S, G335D counted along it

tau peptide 145-157 = biological target: T6, tau peptide 145-157 (human); assay: ELISA
T6 peptide: ADGKTKIATPRGA
Description: (§1) A series of binding ELISA was performed using various truncated versions of the tau protein and 13mer peptide libraries spanning the entire hT40 molecule for mapping the epitopes of anti-tau scAbs (Full list of protein antigens used is given in Table 14). In general, ELISA plates were coated with 1 μg/ml hT40 or dGA or dGAE or other truncated versions of the protein and in the case of biotinylated peptides, plates were coated with 5 μg/ml Streptavidin followed by 1 μg/ml biotinylated peptide. The plates were blocked with 2% MPBS and scAb samples added at desired starting concentrations and double diluted across the plate. Binding was detected using anti-Human C Kappa HRP conjugated secondary antibody and the resulting immunoreaction was developed and absorbance values measured as described above.

[7] = biological target: T3, full length human tau protein 2N4R …; assay: SPR, scAb captured, tau analyte
Procedure, shortened: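 scAb captured on flow cell 2 of an antibody-coated chip, flow cell 1 as reference; tau analyte injected 120 s association, 420 s dissociation, glycine pH 2.0 regeneration, in multi-cycle or single-cycle kinetics format. Responses fitted to a 1:1 binding model for kinetics and affinity.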

[8] = biological target: T7, human tau fragment 296-390 of Line 1 mice (human, UniProt P10636 613-707); assay: Western blot of brain homogenates
T7 construct: also called L1 fragment; 10-kDa tau fragment

mouse tau = biological target: T8, mouse tau (mouse, UniProt P10637 2-733); assay: Western blot of brain homogenates
T8 construct: endogenous protein of mouse brain or plasma; also called endogenous mouse tau
T8 sequence (P10637 other isoform, or with tags, fused parts or gaps limits assumed): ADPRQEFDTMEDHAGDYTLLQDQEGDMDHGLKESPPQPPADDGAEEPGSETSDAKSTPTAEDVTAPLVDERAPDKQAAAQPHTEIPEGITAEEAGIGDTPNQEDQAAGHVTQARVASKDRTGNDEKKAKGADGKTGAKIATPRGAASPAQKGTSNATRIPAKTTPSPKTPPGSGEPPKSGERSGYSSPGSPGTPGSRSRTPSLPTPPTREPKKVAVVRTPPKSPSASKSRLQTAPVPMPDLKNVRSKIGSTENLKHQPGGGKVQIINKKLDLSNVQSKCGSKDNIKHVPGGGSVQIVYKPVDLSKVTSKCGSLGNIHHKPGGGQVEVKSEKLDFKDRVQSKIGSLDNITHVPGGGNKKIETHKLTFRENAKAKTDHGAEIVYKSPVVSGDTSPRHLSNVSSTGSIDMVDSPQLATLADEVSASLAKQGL

tau fragment 369-391 [9] = biological target: T9, tau fragment 369-391 (human); assay: ELISA
T9 peptide: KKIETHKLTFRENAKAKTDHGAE
Description: as §1

tau fragment 369-390 [10] = biological target: T1, tau fragment 369-390; assay: direct ELISA
dGAE (tau 297-391) [11] = biological target: T2, dGAE (tau 297-391); assay: direct ELISA; remark: listed apart in the source
[12] = biological target: T3, full length human tau protein 2N4R …; assay: sandwich ELISA, S1D12 mAb capture, scAb detection
Description: Full length tau (hT40), at 1 μg/ml starting concentration was added to designated wells and double diluted across rest of the plates and left to incubate at R/T for 1 h. A series of detection scAbs with varying epitope recognition properties were added at 10 μg/ml to designated wells (FIG. 22). For colourimetric detection HRP conjugated anti-HuCk secondary antibody was used and the resulting immunoreaction was developed and absorbance at 450 nm measured as described previously. Cut-off point for a positive binding event was an absorbance value of 0.3 following background subtraction. In order to enhance the assay sensitivity, a chemiluminescent detection method was adopted where 50 μL SuperSignal ELISA Femto Substrate (Thermo Scientific) was added to each well following incubation with anti-HuCK HRP antibody and subsequent washing. The luminescence was read using Clariostar Plus microplate reader. A further modification to this protocol was done where various detection scAbs were directly conjugated with HRP and detected using chemiluminescent protocol as before.

[13] = biological target: T3, full length human tau protein 2N4R …; assay: Biacore
Description: The capture antibody was diluted 1/100 in 10 mM Sodium acetate buffer pH 5.0 and passed over the activated chip surface for a period of at least 420 s. Final ligand immobilisation levels over 12,000 RU were deemed to be satisfactory.
The scAb to be tested was added only to flow cell 2 so that flow cell 1 could act as a control to subtract any interaction with the analyte and the chip surface. […] The multi-cycle protocol was as follows-Three start-up cycles composed of an initial capture, to the desired level, of the scAb to be tested was performed followed by a 30 s injection of glycine buffer pH 2.0 after each cycle to regenerate the chip surface. […] The target was added for a 120 s association period and 420 s dissociation period followed by another regeneration, 30 s injection of glycine buffer pH 2.0 in between each cycle.
The single cycle kinetics protocol was similar and utilised the same level of scAb capture. […] In single cycle kinetics the regeneration step was performed only after the final analyte concentration was added. Binding responses were analysed in Biacore X100 evaluation software and data fitted to a 1:1 binding model to obtain kinetic and affinity characterisation.

[14] = biological target: T3, full length human tau protein 2N4R …; assay: hT40 ELISA
tau fragment 369-391 [15] = biological target: T9, tau fragment 369-391; assay: direct ELISA

B1: S2C6 scAb (scFv, not shown: small tags and cut ends)
scFv: QVQLQESGPSLVKPSQTLSLTCTVSGFSLISNSVGWVRQAPGKAPEWVAGIDTDGEEGYNPALKSQYAASDPDTSKSQVSLSLSSVTSEDTAVYYCGRTYRTDGFAYGYVQAIDYWGPGLLLTISSEGKSSGASGESKVDDQAVLTQPSSVSGSLGQRVSITCSGSFIGISSVGWFQQLPGSGLRTIIVASDGRPSGVPDRFSMSKSGNTATLTISSLQAEDEADYFCGSSDRTQYTGVFGSGTRLTVLG
notes: scAb
EC50 (read off the curve) (tau fragment 369-390 [1]): ~2 µg/mL | EC50 (read off the curve) (dGAE (tau 297-391) [2]): ~0.8 µg/mL

B2: CA4 mAb (antibody, mouse IgG2a, V domains shown)
VH: QVQLQESGPSLVKPSQTLSLTCTVSGFSLTSYSVYWVRQAPGQALEWISIMYASGRVDYNPALKSRLSITRDTSKSQFSLSLSSVTTEDTAVYYCTRGIENWGPGLLVTVSS
VL: DIQVTQSPSSLSASLTERVSITCRTSQSVNNYLSWYQQKPGQAPKLLIYYATRLYTDVPSRFSGSGSGTDYTLTITSLEADDTATYYCLQYDSTPLAFGGGTNVEIKG
notes: sheep-mouse IgG2a chimeric mAb; also called CA4 antibody
Kd [3]: 1.3 nM | koff [3]: 0.00128 s⁻¹ | kon [3]: 1.02e+06 M⁻¹ s⁻¹ | binding result (aggregated dGAE [4]): no binding (tested: 800 nM)

B3: S1D12 mAb (antibody, mouse IgG2a, V domains shown)
VH: QVQLQESGPSLVKPSQTLSLTCTVSGFSLNNNAVGWVRQAPGKVPESLVGCSSDGTCYYNSALKSRLDITRDTSKNQISLSLSSVTTDDAAVYYCTRGHYSIYGYDYLGTIDYWGPGLLVTVSS
VL: QAVLTQPSSVSGSLGQRVSITCSGSSSNVGGGNSVGWYQHLPGSGLKTIIYDTNSRPSGVPDRFSGSRSGNTATLTINSLQAEDEGDYYCVTGDSTTHDDLVGSGTRLTVLG
notes: sheep-mouse IgG2a chimeric mAb; also called S1D12 antibody; SD12
Kd [3]: 0.101 nM | koff [3]: 4.09e-05 s⁻¹ | kon [3]: 406000 M⁻¹ s⁻¹ | EC50 (read off the curve) (aggregated dGAE [5]): ~30 nM | binding result [6]: binds

B4: 3aD6 scAb (scFv, not shown: small tags and cut ends)
scFv: QVQLQESGPSLVKPSQTLSLTCTVSGFSLTSNAVIWVRQAPGKAPEWVALIDVDGDAAYDPALKSRLSITRDTSKSQVSLSLRSVTTEDTAVYYCARDYGSWGYVSDIDYWGPGLLVTVSSEGKSSGASGESKVDDQAVLTQPSSVSGSLGQRVSITCSGSDIGGADVGWFQQVPGSGLRTLIYDNDNRPSGVPDRFSGSKSGNTATLTISSLQPEDEADYFCGTYSGANYGIFGSGTRLTVLG
notes: scAb
binding result (tau peptide 145-157): binds

B5: 3aA6 scAb (scFv, not shown: small tags and cut ends)
scFv: QVRLQESGSSLVKPSQTLSLVCTVSGFPLTSNAVGWVRQAPGKAPEWLGLIDIDGDTAYNPALESRLSITRDTSKSQVSLSLSSVAIEDTAVYYCARHYDKWGYADSIDYWGPGLLVTVSSEGKSSGASGESKVDDQALLTQPSSVFGSLGQRVSITCSGSSSNVGYGDYVGWYQQVPGSAPKLLIYDATTRASGVPDRFSGSRSGNTATLTISSLQAEDEADYYCASYQNERSGVFGSGTRLTVLG
notes: scAb
binding result (tau peptide 145-157): binds | Kd [7]: 989 nM | koff [7]: 0.0188 s⁻¹ | kon [7]: 19000 M⁻¹ s⁻¹

B6: CC7 mAb (antibody, mouse IgG2a, V domains shown)
VH: QVQLQESGPSLVKPSQTLSLTCTVSGFSLTSNAVIWVRQAPGKAPEWVALIDVDGDAAYDPALKSRLSITRDTSKSQVSLSLRSVTTEDTAVYYCARDYGSWGYVSDIDYWGPGLLVTVSS
VL: RVVRTQPSSVSGSLGQRVSITCSGSYITGSSVGWFQQVPGSGLKTVIYDNNDRPSGVPDRFSGSKSGDTATLTISSLQAEDEADYYCASYDTSNIGLFGSGTRLTVLG
notes: sheep-mouse IgG2a chimeric mAb; also called CC7 antibody
binding result [8]: no binding | binding result (mouse tau): no binding | Kd [3]: 6.9 nM | koff [3]: 0.0316 s⁻¹ | kon [3]: 4.58e+06 M⁻¹ s⁻¹ | binding result [6]: binds

B7: S1G10 scAb (scFv, not shown: small tags and cut ends)
scFv: QVQLQESGPSLVKPSQTLSLTCTVSGFSLTSNSVGWVRQAPGKAPEWVAGIDTDGEEGYNPALNSRLSITRDTSKSQVSLSLSSVTSEDTAVYYCGRSYRADGLAYGYVQAIDYWGPGLLVTVSSEGKSSGASGESKVDDQAVLTQPSSMSGSLGQRVSITCSGSFIGISSVGWFQQLPGSGLRTIIVASDGRPSGVPDRFSMSKSGNTATLTISSLQAEDEADYFCGSSDRTQYTGVFGSGTRLTVLG
notes: scAb
binding result (tau fragment 369-391 [9]): binds | binding result (tau fragment 369-390 [10]): binds | EC50 (read off the curve) (dGAE (tau 297-391) [11]): ~0.9 µg/mL | LoD chemiluminescence detection [12]: 0.12 ng/mL | LoD colourimetric detection [12]: 2 ng/mL | Kd [13]: 0.4 nM

B8: S1F4 scAb (scFv, not shown: small tags and cut ends)
scFv: QVQLQESGPSLVKPSQTLSLTCTVSGFSLSSNSVGWVRQAPGKAPEWVAGIDTDGEEGYNPALNSRLSITRDTSKSQVSLSLSSVTSEDTAVYYCVRSYRADGLAYGYVQAIDYWGPGLLLTISSEGKSSGASGESKVDDQAVVTQPSSVSGSLGQRVSITCSGSFIGISSVGWFQQLPGSGLRTVIVASDGRPSGVPDRFSNSKSGNTATLTISSLQAEDEADYFCGSSDRTQYTGVFGSGTRLTVLG
notes: scAb
EC50 (read off the curve) [14]: ~0.05 µg/mL | EC50 (read off the curve) (tau fragment 369-390 [1]): ~2 µg/mL | binding result (tau fragment 369-391 [15]): binds | EC50 (read off the curve) (dGAE (tau 297-391) [2]): ~0.3 µg/mL

B9: CB7 mAb (antibody, mouse IgG2a, V domains shown)
VH: QVQLQESGPSLVKPSQTLSLTCTVSGFSLTNYRVGWVRQAPGKALEWVSNIRSGGTTWYNPALKSRLSITADTSKSQVSLSLSSVTTEDTAVYYCARDSSGDLYAYDYWGPGLLVTVSS
VL: QAVLTQPSSVSRSLGQSVSMTCSGSSSNVGYGNYMAWFQQVPGSAPKLLIYGATSRASGVPDRFSGSRSGNTATLTISSLQAEDEADYYCASYDSTSGGVFGSGTRLTVLG
notes: sheep-mouse IgG2a chimeric mAb; also called CB7 antibody
binding result [8]: no binding | binding result (mouse tau): no binding | Kd [3]: 3.7 nM | koff [3]: 0.00945 s⁻¹ | kon [3]: 2.57e+06 M⁻¹ s⁻¹ | binding result [6]: binds | binding result (aggregated dGAE [4]): no binding (tested: 800 nM)
